The source of these data is article PMC8922107.

This experiment has as its target Flag-PKM2 from the nuclear fraction of U87 cells (UniProt P14618). As to the kind of experiment: SEC; Flag-PKM2 eluted with flag peptide in TBS (25 mM Tris, 150 mM NaCl, pH 7.2); Superdex 200 increase 10/300 GL, 4 °C, 0.5 mL/min; fractions analysed by western blot. Background: In gel filtration, larger molecules generally elute earlier.

Chain of Flag-PKM2 from the nuclear fraction of U87 cells, P14618 1-531 (enzyme; other documents disagree on this pair) (P14618 whole entry): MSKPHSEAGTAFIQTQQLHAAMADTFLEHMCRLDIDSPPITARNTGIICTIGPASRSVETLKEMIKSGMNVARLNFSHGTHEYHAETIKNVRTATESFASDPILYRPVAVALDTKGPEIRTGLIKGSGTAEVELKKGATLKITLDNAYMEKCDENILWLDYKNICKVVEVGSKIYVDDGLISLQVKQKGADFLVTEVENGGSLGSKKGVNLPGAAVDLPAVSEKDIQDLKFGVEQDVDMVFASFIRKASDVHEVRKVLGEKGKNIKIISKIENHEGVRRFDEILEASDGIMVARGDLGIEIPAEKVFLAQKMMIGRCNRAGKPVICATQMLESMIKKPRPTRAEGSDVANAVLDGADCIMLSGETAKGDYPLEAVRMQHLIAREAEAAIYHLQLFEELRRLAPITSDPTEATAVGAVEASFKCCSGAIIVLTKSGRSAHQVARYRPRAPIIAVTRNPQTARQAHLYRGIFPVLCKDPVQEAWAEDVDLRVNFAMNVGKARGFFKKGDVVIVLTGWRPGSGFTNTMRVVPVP

A word on the stoichiometry N: it is a count of units in the complex or per binding partner. “Flag-PKM2 from the nuclear fraction of U87 cells, P14618 1-531 (enzyme; other documents disagree on this pair)” showed a stoichiometry N of 2.
